The source of these data is the DeepSol protein solubility set.

The data set in a line: soluble on expression in E. coli; label from the status in PepcDB or PDB records.
With “MASFSILSIFKIGVGPSSSHTIGPMEAGARFCESLKGILEQVVRVQITLHGSLALTGKGHLSDEAVLIGLHGIYANELEVTTKKALLHEALENKVLKLANQHHIPFDYAKDLIFDNKPLTRHQNALILKAFNSKNEVLKEETYYSVGGGFVYTEKELDNLSEEDGNESIAYDFSSAKELLELCQKHQKSIAEIVRLRENALKNHPDATMVKIYHAMLECYDNGANSKERYLPGSLKVTRLAPSIKTRLEKHPTSGKDPLALIDYISLYARAIAEENASGGKVVTAPTNGACAVVPSVLLYAKNHLFENLSQKAINDFLLTSAAIGYLYKKNASLSGAEAGCQAEIGVASSMAAGGLAHLCQATTQQVLIASEIAMEHHLGLTCDPVGGLVQIPCIERNVLGAIKAISASKLALEDEYKPKVSLDEVIATMYATGKDMNEKYKETSLGGLAKTLKC”, the “soluble on expression in E. coli” value was “not soluble”.

For the sequence “MSLLARYLNLIGRRSASPYRPQRLPAKFDNVIVAMSSGVDSSVAAALFAGEFPNTRGVYMQNWSESQSLDDPGKEPCYERDWRDVNRVAKHLNIRVDKVNFEQDYWIDVFEPMLRGYSEGSTPNPDIGCNKFVKFGKLREWLDEKYGTGNYWLVTGHYARVMQEMNGKGLFHLLRSIYRPKDQSYYLSQINSTVLSSLLLPIGHLTKPEVRDLAKYAGLPTAEKPDSQGICFVNNSQHGKFKNFLKHYLPSSPGDIITVDPQSGAKTTWGRHDGLWSYTIGQKVGISMPQADPNYQGTWFVSEKLRDTNEILIVRGRDNPALYSDTMRIENFSSLGPREDTINAFQNTGALTLQFRSLQVPVQIKSCKLNRSADNLDITIHLASKQRAITPGQSCCLYIDDRVLGSGPISHVNNNDTHAEGHHHHHH”, the “soluble on expression in E. coli” value is “not soluble”.

“MAQFTEEEKTIRRIEKRFNKGMVQYGLIEEGDKVLVGLSGGKDSLALVELLGKRSHIFKPRFSVVAVHVVMKNIPYQSDWDYLREHAEKNGVPLVVYETSFDPSTDTRKSPCFLCSWNRRKALFTVAKEQGCNKIALGHHMDDILETLLMNITYQGAFSTMPPRLVMNKFDMTIIRPMCLVHEADLLELAQIRGYRKQVKNCPYESQSSRSDMKGILRQLEKMNPEARYSLWGSMTNVQEELLPKEVEF”: the “soluble on expression in E. coli” value is reported as “not soluble”.

For “MGHPARMAILSFLAKQESCFFGDIHEELPIAKATVSQHLKELKDAGLIQGEIETPKVRYCINKENWELARKLFAAFLGDCKCTGTSCCG”, the “soluble on expression in E. coli” value is given as “not soluble”.

As for “GQDRSEATLIKRFKGEGVRYKAKLIGIDEVSAARGDKLCQDSMMKLKGVVAGARSKGEHKQKIFLTISFGGIKIFDEKTGALQHHHAVHEISYIAKDITDHRAFGYVCGKEGNHRFVAIKTAQAAEPVILDLRDLFQLIYELKQREELEKKA”, the “soluble on expression in E. coli” value is “soluble”.

Turning to “ASSPANKVYQDRFESMYSKIKDPANGYFSEQGIPYHSIETLMVEAPDYGHVTTSQAMSYYMWLEAMHGRFSGDFTGFDKSWSVTEQYLIPTEKDQPNTSMSRYDANKPATYAPEFQDPSKYPSPLDTSQPVGRDPINSQLTSAYGTSMLYGMHWILDVDNWYGFGARADGTSKPSYINTFQRGEQESTWETIPQPCWDEHKFGGQYGFLDLFTKDTGTPAKQFKYTNAPDADARAVQATYWADQWAKEQGKSVSTSVGKATKMGDYLRYSFFDKYFRKIGQPSQAGTGYDAAHYLLSWYYAWGGGIDSTWSWIIGSSHNHFGYQNPFAAWVLSTDANFKPKSSNGASDWAKSLDRQLEFYQWLQSAEGAIAGGATNSWNGRYEAVPSGTSTFYGMGYVENPVYADPGSNTWFGMQVWSMQRVAELYYKTGDARAKKLLDKWAKWINGEIKFNADGTFQIPSTIDWEGQPDTWNPTQGYTGNANLHVKVVNYGTDLGCASSLANTLTYYAAKSGDETSRQNAQKLLDAMWNNYSDSKGISTVEQRGDYHRFLDQEVFVPAGWTGKMPNGDVIKSGVKFIDIRSKYKQDPEWQTMVAALQAGQVPTQRLHRFWAQSEFAVANGVYAILFPD”, the “soluble on expression in E. coli” value is on record as “soluble”.

Consider “MGSDKIHHHHHHINKDNITTDTAEESKQQDSNKKQELPTATYMGGSNTITEVCDELGSAGASHVDTFKEWVTDFADSAGKNAKLKDTWSDAYKMKADTVKCMDGWEKKHDYSDADCRMTAFLLLDGLLHAQSTEDSYSGTYLMFDTEAIDNVDRYEIIRQNKDMFTTLYGEKSITDDKHPEKTFSDNWKKYGFQIDSNCISLISIAIYDPDSDAMFVGHTGVLIKYSDYYLFVEKIAFEQPYQATKVNNMDELLSILSLRPEYFGEEKEAGPFVYNNGDYVGTLELQG”, for which the “soluble on expression in E. coli” value was “not soluble”.

As to “MAAALKPSAPEIRKAAQEFINYLNKAVTPFHATQEVKDRLLQAGFTELPESGHWDIQPTSKYFVTKNRSAILAFAVGGSYKPGSGFSIVVGHTDSPCLRVKPISHQKSDKFLQVGVSTYGGGIWRTWFDRDLSVAGLVIVKNGEKLQHKLIDVKKPVLFIPNLAIHLETDRTTFKPNTETELRPILETFAAAGINAPQKPESTGFADPRNITNNHHPQFLGLIAKEAGCQPEDIVDLDLYLYDTNKAAIVGMEDEFISGARLDNQVGTYTAISGLLESLTGESFKNDPQIRIAACFDNEEVGSDSAMGASSSFTEFVLRRLSAGGSTTAFEEAIGKSMLISADQAHATHPNYSAKHEENHRPAFHGGVVVKVNVNQRYATTSTTHAALKQVAFEAQVPLQVVVVRNDSPCGSTVGPILATKLGLQTVDVGCPQLAMHSIREFADTSSIYQATTLYSTFYERLSTVLSNMQ”, the “soluble on expression in E. coli” value is given as “not soluble”.

Turning to “VSVITSEMKMELRMEGAVNGHKFVITGKGSGQPFEGIQNMDLTVIEGGPLPFAFDILTTVFDYGNRVFVKYPEEIVDYFKQSFPEGYSWERSMSYEDGGICLATNNITMKKDGSNCFVYEIRFDGVNFPANGPVMQRKTVKWEPSTEKMYVRDGVLKGDVNMALLLQGGGHYRCDFRTTYKAKKVVQLPDYHFVDHRIEITSHDKDYNKVKLYEHAKAHSGLPRLAK”, the “soluble on expression in E. coli” value was “soluble”.

On to “MRRAGLGEGVPPGNYGNYGYANSGYSACEEENERLTESLRSKVTAIKSLSIEIGHEVKTQNKLLAEMDSQFDSTTGFLGLCPM”, for which the “soluble on expression in E. coli” value is given as “soluble”.

As for “MGSDKIHHHHHHMTTLLRTRRFPPLNALRAFEAAARHLNFRLAADELGVTQGAVAQQVRHLEDVVAVQLFRRLPRGLALTREGLEYFSSVQRALQIISDATDALGERPTVLAVSTTPSFASKWLIPRLADFGRLHPDIEVRVIADERLASFRADGVDIAIRLSKPPFPAGLAAELLAPLDIFAVASPKLLDSGPPIRTPADLSTHALLHDAHDLWPEFIEKLGGKGRADPTKGPRFSQSLLAIDAAVAGQGIALTSEPLVERDIAEGRLRRVFDFSFPMSLGFYVVFPQANAHSEALQAMRRWLFAQYGKA”, the “soluble on expression in E. coli” value is “not soluble”.

On to “MGSDKIHHHHHHMAKVPAKAKPEHALLAVPRELMPRDLRVSLHDYTRGGTDRFLTNGQGAKQDMTGFEDQYVNIIDYIVRITHRIWEEKDIGYIYDTYAHNCRVWDDVGLQYGRDKIVADTTHTINAFPDVKLYADEVIWAGDAEHGFHTSHRTVIKGTNTGFSRWGPPTMRPVNVWCIANCVARENEIFEEHVQYNLGAMLQQLGFDLRALAATARAIGIETDPLFAASGRTRVPGQGKPAHGTPRGDGPFDVADFLCSMTQDVWNRRMLSRLTRAYAPALNYQGPTNRSYRSLAQYQSALLSLLAMFPDLSFEPEALYYMEDGKGTTWSSLRWSATGSHGGFGPYGTPTGREVRIWGITQHKIEGETITEEWMQFNEFDLLRQLAPDPVV”, for which the “soluble on expression in E. coli” value was “not soluble”.

“QTGGSFFEPFNSYNSGTWEKADGYSNGGVFNCTWRANNVNFTNDGKLKLGLTSSAYNKFDCAEYRSTNIYGYGLYEVSMKPAKNTGIVSSFFTYTGPAHGTQWDEIDIEFLGKDTTKVQFNYYTNGVGGHEKVISLGFDASKGFHTYAFDWQPGYIKWYVDGVLKHTATANIPSTPGKIMMNLWNGTGVDDWLGSYNGANPLYAEYDWVKYTSN”: the “soluble on expression in E. coli” value was “soluble”.

“MAIFARETMDLIATASFPSIKKLSSGFWLDLFESTLTSGNELVLLPPTRYSYWSIMAVANPTPLKAPRRLDLVTKSLLAAPLLFHLVCQSNNPVREDVLDCWVWPFFCSGNTALMKSPKFWALLGVGSKVVLPWLCPLLGSRNAGKA”: the “soluble on expression in E. coli” value is given as “soluble”.

With “GPGSMSEPHVPTAAAQQPSAEATANAALTADSTVHTSPQAPPPPAASGASTVSANVAEVKSVTATLSDVADSTEPLLVGKVVSSEIAQARSQPCTSDLNTAQSGAGAPVDANVGEQDRCSPPAKSTSSSSSSHSGEESSDEAADFETKELMFAFGRYVGQVNPQTGLRHGHGCQYYNNGNVYTGEWRDGAPDGFGEKRYRNGDVYRGNWRQGKRSGRGVYLFVQGDTYEGMYADDKPEGQGTYATLKGDRYTGQWKAGQRHGTGRETLANGQVFVGNWRYGKKQGRGKLYLPGSEKCIYGIWNNDRFFRELTANEMGADGAEDVVDELGTQRRPSALSVALPGAKAPPPSASLADRVRMGVTALENRMESLGKALERVITGGDGDESAHVPRAAAMGAASSTAGDVAVSEECTEPPAQGFVVNSHQANDEDGEQG”, the “soluble on expression in E. coli” value is “soluble”.

“MGSSHHHHHHSSGLVPRGSGDYDYLIKLLALGDSGVGKTTFLYRYTDNKFNPKFITTVGIDFREKRVVYNAQGPNGSSGKAFKVHLQLWDTAGQERFRSLTTAFFRDAMGFLLMFDLTSQQSFLNVRNWMSQLQANAYCENPDIVLIGNKADLPDQREVNERQARELADKYGIPYFETSAATGQNVEKAVETLLDLIMKRMEQCVEKTQIPDTVNGG”: the “soluble on expression in E. coli” value is listed as “soluble”.

As for “MKGKSILSEGKQIQLATELVRLGARLQVLEASTTLSRERLVKLYKEVKGASPPKGMLPYSEDWFTGWQPNMHSSLFINIYNYITRYTKVRDIDAIIKSYQLYLEHIEANRLQRILSFTRAWTLVRFVESKVLSVTSCVKCTGNFLVHSLDIQSNHVCGLCHVPSRAGKTKRVAQEARAAQEAGAGELCVI”, the “soluble on expression in E. coli” value is listed as “not soluble”.

As to “MEVLKLQLRQWQAEKLGEAINALKHGKTLLLNAKPGLGKTVFVEVLGMQLKKKVLIFTRTHSQLDSIYKNAKLLGLKTGFLIGKSASCIYAQGDEEPDEINCSKCRLKDKIKTIEDKEPSKLIEEFKDAVDYCPYYSLRANLKDKDVIAMTYPYLFQKPIRNSVFCNKDDCLKLEDYLIVIDEAHNLLEADKWFTRKISRKMLERALKEIEIVERLNRIDAKKVKDYINLLIDYMSKLIKDGRCHELSLMPLPDRETNGELIVVTRAYLNIDEGPVKKSSLKSLLKFVEMKGDLYNCNGSLVKVPSDVNQLIEDALNVKTFKVLMSGTLPESLTLTNSYKIVVNESYGRGEYYYCPNVTSELRKRNSNIPIYSILLKRIYENSSKSVLVFFPSYEMLESVRIHLSGIPVIEENKKTRHEEVLELMKTGKYLVMLVMRAKESEGVEFREKENLFESLVLAGLPYPNVSDDMVRKRIERLSKLTGKDEDSIIHDLTAIVIKQTIGRAFRDPNDYVKIYLCDSRYREYFADLGISEKEIKLFA”, the “soluble on expression in E. coli” value was “soluble”.

For the sequence “MKVLFLTANEFEDVELIYPYHRLKEEGHEVYIASFERGTITGKHGYSVKVDLTFDKVNPEEFDALVLPGGRAPERVRLNEKAVSIARKMFSEGKPVASICHGPQILISAGVLRGRKGTSYPGIKDDMINAGVEWVDAEVVVDGNWVSSRVPADLYAWMREFVKLLK”, the “soluble on expression in E. coli” value is on record as “soluble”.

Consider “DAAVTPEERHLSKMQQNGYENPTYKFFEQMQNSGPSSGIEGRGSSGSSGSSGSSGPTPKTELVQKFRVQYLGMLPVDRPVGMDTLNSAIENLMTSSSKEDWPSVNMNVADATVTVISEKNEEEVLVECRVRFLSFMGVGKDVHTFAFIMDTGNQRFECHVFWCEPNAANVSEAVQAAC”, for which the “soluble on expression in E. coli” value is given as “soluble”.
